# In patent US20230414619:
# Biological target: Flag-tagged METTL3, Q86U44
# Sequence (Q86U44 whole entry): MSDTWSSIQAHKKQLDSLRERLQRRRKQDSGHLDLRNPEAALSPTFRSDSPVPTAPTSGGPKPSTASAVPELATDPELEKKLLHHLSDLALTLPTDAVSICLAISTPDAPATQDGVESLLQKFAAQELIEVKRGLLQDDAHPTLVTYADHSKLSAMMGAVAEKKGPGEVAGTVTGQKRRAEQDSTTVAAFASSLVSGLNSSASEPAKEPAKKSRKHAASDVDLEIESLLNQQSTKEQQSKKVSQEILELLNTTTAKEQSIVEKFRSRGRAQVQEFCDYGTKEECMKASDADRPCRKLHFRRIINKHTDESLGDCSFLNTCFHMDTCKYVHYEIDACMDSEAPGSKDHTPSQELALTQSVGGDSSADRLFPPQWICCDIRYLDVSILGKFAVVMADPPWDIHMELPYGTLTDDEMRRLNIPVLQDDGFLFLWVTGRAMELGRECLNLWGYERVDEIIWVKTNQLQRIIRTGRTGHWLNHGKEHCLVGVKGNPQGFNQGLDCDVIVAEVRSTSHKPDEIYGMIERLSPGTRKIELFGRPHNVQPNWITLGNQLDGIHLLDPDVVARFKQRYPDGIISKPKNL
protein,measurement,value
HA-tagged G9a (protein) MAAAAGAAAAAAAEGEAPAEMGALLLEKETRGATERVHGSLGDTPRSEETLPKATPDSLEPAGPSSPASVTVTVGDEGADTPVGATPLIGDESENLEGDGDLRGGRILLGHATKSFPSSPSKGGSCPSRAKMSMTGAGKSPPSVQSLAMRLLSMPGAQGAAAAGSEPPPATTSPEGQPKVHRARKTMSKPGNGQPPVPEKRPPEIQHFRMSDDVHSLGKVTSDLAKRRKLNSGGGLSEELGSARRSGEVTLTKGDPGSLEEWETVVGDDFSLYYDSYSVDERVDSDSKSEVEALTEQLSEEEEEEEEEEEEEEEEEEEEEEEEDEESGNQSDRSGSSGRRKAKKKWRKDSPWVKPSRKRRKREPPRAKEPRGVNGVGSSGPSEYMEVPLGSLELPSEGTLSPNHAGVSNDTSSLETERGFEELPLCSCRMEAPKIDRISERAGHKCMATESVDGELSGCNAAILKRETMRPSSRVALMVLCETHRARMVKHHCCPGCGYFCTAGTFLECHPDFRVAHRFHKACVSQLNGMVFCPHCGEDASEAQEVTIPRGDGVTPPAGTAAPAPPPLSQDVPGRADTSQPSARMRGHGEPRRPPCDPLADTIDSSGPSLTLPNGGCLSAVGLPLGPGREALEKALVIQESERRKKLRFHPRQLYLSVKQGELQKVILMLLDNLDPNFQSDQQSKRTPLHAAAQKGSVEICHVLLQAGANINAVDKQQRTPLMEAVVNNHLEVARYMVQRGGCVYSKEEDGSTCLHHAAKIGNLEMVSLLLSTGQVDVNAQDSGGWTPIIWAAEHKHIEVIRMLLTRGADVTLTDNEENICLHWASFTGSAAIAEVLLNARCDLHAVNYHGDTPLHIAARESYHDCVLLFLSRGANPELRNKEGDTAWDLTPERSDVWFALQLNRKLRLGVGNRAIRTEKIICRDVARGYENVPIPCVNGVDGEPCPEDYKYISENCETSTMNIDRNITHLQHCTCVDDCSSSNCLCGQLSIRCWYDKDGRLLQEFNKIEPPLIFECNQACSCWRNCKNRVVQSGIKVRLQLYRTAKMGWGVRALQTIPQGTFICEYVGELISDAEADVREDDSYLFDLDNKDGEVYCIDARYYGNISRFINHLCDPNIIPVRVFMLHQDLRFPRIAFFSSRDIRTGEELGFDYGDRFWDIKSKYFTCQCGSEKCKHSAEAIALEQSRLARLDPHPELLPELGSLPPVNT,LC-MS/MS of tryptic digests of Flag-METTL3: mono- or di-methyl-lysine (Kme) sites,four mono- or di-methyl-lysine (Kme) sites in the C-terminus of METTL3
same,"lysine methylation of immunoprecipitated Flag-METTL3, immunoblotting with an anti-mono- or di-methylysine antibody",METTL3 was methylated
